# Measurements from US20130196320A1, “METHOD FOR IMPROVING CLEAVAGE OF DNA BY ENDONUCLEASE SENSITIVE TO METHYLATION” (CELLECTIS, priority 2010, published 2013).
# Read-outs that look alike come from different tables or passages of the source.
# What was measured:
# [1] = tested on: ADCY9.1 DNA target; test: In vitro single turn over cleavage assay with ADCY9.1; assay type: biochemical
# Method: (§1) FIG. 13: In vitro cleavage of unmethylated or methylated ADCY9.1 by ADCY9. A constant amount of ADCY9.1 duplex (50 nM) was incubated with an excess of ADCY9 (1.5 μM, final concentration) in the reaction buffer (10 mM Tris-HCl, 150 mM NaCl, pH8) at 37° C. Cleavage reaction was triggered by the addition of MgCl2 and then stopped after different time lengths by the addition of the stop buffer. This was followed by one hour of incubation at 37° C. to digest ADCY9 and release free DNA molecules. Cleaved and uncleaved DNA products were separated by PAGE using a TGX Any kD precast gel (Bio-Rad), stained with SYBR Green and then quantified using Quantity One software (Bio-Rad). Disappearance of substrate (uncleaved DNA) is plotted as a function of time.
# To investigate the influence of C1234 methylation on the nuclease activity of I-Cre I, in vitro single turn over cleavage assays were performed with either unmethylated or methylated C1234 duplexes (unmethylated C1234 composed of SEQ ID NO: 31+SEQ ID NO: 32, C1234_Me full composed of SEQ ID NO: 35+SEQ ID NO: 38, C1234_Me-6a/-5b composed of SEQ ID NO: 33+SEQ ID NO: 36, C1234_Me-3a/-2b composed of SEQ ID NO: 34+SEQ ID NO: 37, C1234_Me-3a composed of SEQ ID NO: 34+SEQ ID NO: 32, C1234_Me-2b composed of SEQ ID NO: 31+SEQ ID NO: 37, respectively). A constant amount of C1234 duplex (50 nM) was incubated with an excess of I-Cre I (1.5 μM, final concentration) in the reaction buffer (10 mM Tris-HCl, 150 mM NaCl, pH8) at 37° C. Cleavage reaction was triggered by the addition of MgCl2 and then stopped after different time lengths by the addition of the stop buffer (45% glycerol, 95 mM EDTA, 1.5% (w/v) SDS, 1.5 mg/mL proteinase K and 0.048% (w/v) bromophenol blue, final concentrations). This was followed by one hour incubation at 37° C. to digest I-Cre I and release free DNA molecules. Cleaved and uncleaved DNA products were separated by PAGE using a TGX Any kD precast gel (Bio-Rad), stained with SYBR Green and then quantified using Quantity One software (Bio-Rad). […]
# [2] = molecular target: C1221 DNA target; test: In vitro binding assay, fluorescence anisotropy of fluorescein-labeled C1221 duplex; conditions: read-out: [I-CreI]50, apparent dissociation constant
# Method: FIG. 1: Spectrofluorimetric titration of fluorescein-labeled C1221 by I-CreI. 50 nM C1221, containing either 0 or 4 methylated CG on both strands, was incubated with increasing concentrations of I-CreI (from 0 to 1.5 μM) in binding buffer (10 mM Tris-HCl, 150 mM NaCl, 10 mM CaCl2, 10 mM DTT, pH8) at 25° C. After 30 minutes incubation, the fluorescence anisotropy of the mixture was recorded and then plotted as a function of I-CreI concentration.
# Fluorescein labeled C1221 oligonucleotides were synthesized and HPLC-purified by Eurogentec. […] C1221 duplex and fluorescein final concentrations were assessed by spectrophotometry using their respective extinction coefficients ε260nm=62900 M^−1 cm^−1 and ε495nm=83000 M^−1 cm^−1. […]
# To investigate the binding of I-CreI to C1221 duplex, 50 nM of C1221 duplex was incubated with increasing concentrations of I-CreI (from 0 to 1.5 μM) in binding buffer (10 mM Tris-HCl, 150 mM NaCl, 10 mM CaCl2, 10 mM DTT, pH8) at 25° C. After 30 minutes incubation, the fluorescence anisotropy of the mixture was recorded with a Pherastar Plus (BMG Labtech) operating in fluorescence polarization end point mode with excitation and emission wavelengths set to 495 and 520 nm respectively. […] [I-CreI]50 is defined as the concentration of 1-CreI needed to reach 50% of the final fluorescence anisotropy.
# [3] = tested on: XPC4.1 DNA target; test: In vitro single turn over cleavage assay with XPC4.1; assay type: biochemical
# Method: as §1, with “8:” for “13:”, “XPC4.1” for “ADCY9.1”, “XPC4.” for “ADCY9.”, “XPC4” for “ADCY9”, “Disappearance of substrate (uncleaved DNA) is plotted as a function of time.” left out
# To investigate the influence of C1234 methylation on the nuclease activity of I-Cre I, in vitro single turn over cleavage assays were performed with either unmethylated or methylated C1234 duplexes (unmethylated C1234 composed of SEQ ID NO: 31+SEQ ID NO: 32, C1234_Me full composed of SEQ ID NO: 35+SEQ ID NO: 38, C1234_Me-6a/-5b composed of SEQ ID NO: 33+SEQ ID NO: 36, C1234_Me-3a/-2b composed of SEQ ID NO: 34+SEQ ID NO: 37, C1234_Me-3a composed of SEQ ID NO: 34+SEQ ID NO: 32, C1234_Me-2b composed of SEQ ID NO: 31+SEQ ID NO: 37, respectively). […] Cleaved and uncleaved DNA products were separated by PAGE using a TGX Any kD precast gel (Bio-Rad), stained with SYBR Green and then quantified using Quantity One software (Bio-Rad). […]
molecule,measurement,setting,value
ADCY9: engineered meganuclease (SEQ ID NO: 3) designed to cleave adenylate cyclase 9 gene (protein) MANTKYNEEFLLYLAGFVDGDGSIIAQIKPNQSYKFKHQLSLTFRVTQKTQRRWFLDKLVDEIGVGYVRDSGSVSNYDLSEIKPLHNFLTQLQPFLELKQKQANLVLKIIEQLPSAKESPDKFLEVCTWVDQVAALNDSKTRKTTSETVRAVLDSLSEKKKSSPAAGGSDKYNQALSKYNQALSKYNQALSGGGGSNKKFLLYLAGFVDSDGSIIAQIKPDQSYKFKHQLGLTFQVTQKTQRRWFLDKLVDRIGVGYVRDRGSVSDYILSEIKPLHNFLTQLQPFLKLKQKQANLVLKIIEQLPSAKESPDKFLEVCTWVDQVAALNDSKTRKTTSETVRAVLDSLSEKKKSSP,kcat,[1]; ADCY9.1_Me −3a/−2b (fully methylated),<1.7e-06 s⁻¹
same,substrate disappearance,"[1]; fully methylated ADCY9.1, even after 5 hours",no substrate disappearance was observed
same,kcat,[1]; unmethylated ADCY9.1,0.00095 ± 1.7e-05 s⁻¹
"I-CreI: wild-type I-CreI meganuclease (… homing endonuclease), SEQ ID NO: 1, recombinant Cterm His-tag (protein, listed as Chlamydomonas reinhardtii, C-terminal His-tag) MNTKYNKEFLLYLAGFVDGDGSIIAQIKPNQSYKFKHQLSLTFQVTQKTQRRWFLDKLVDEIGVGYVRDRGSVSDYILSEIKPLHNFLTQLQPFLKLKQKQANLVLKIIEQLPSAKESPDKFLEVCTWVDQIAALNDSKTRKTTSETVRAVLDSLSEKKKSSP",Kd,[2]; fully methylated C1221 (4 methylated CG on both strands),~1000 nM
same,Kd,[2]; unmethylated C1221,30 nM
XPC4: engineered meganuclease (SEQ ID NO: 2) designed to cleave xeroderma pigmentosum group C gene (XPC) (protein) MANTKYNEEFLLYLAGFVDGDGSIIAQIKPNQSHKFKHALQLTFKVTQKTQRRWFLDKLVDEIGVGYVQDSGSVSNYILSEIKPLHNFLTQLQPFLELKQKQANLALKIIEQLPSAKESPDKFLEVCTWVDQVAALNDSKTRKTTSETVRAVLDSLSEKKKSSPAAGGSDKYNQALSKYNQALSKYNQALSGGGGSNKKFLLYLAGFVDSDGSIIAQIKPNQSHKFKHQLSLAFQVTQKTQRRWFLDKLVDRIGVGYVRDRGSVSDYILSKIKPLHNFLTQLQPFLKLKQKQANLVLKIIEQLPSAKESPDKFLEVCTWVDQVAALNDSKTRKTTSETVRAVLDSLSEKKKSSP,kcat,[3]; XPC4.1_Me −11a/−10b & +10a/+11b (fully methylated),0.0017 ± 0.00017 s⁻¹
same,kcat,[3]; unmethylated XPC4.1,0.0013 ± 0.00017 s⁻¹
